According to paper PMC4414485:

What was measured:
[1] = molecular target: hERG1a(R56Q).Citrine (human) (UniProt Q12809)
[2] = molecular target: hERG1a(R56Q).Citrine (human) (UniProt Q12809); remark: listed apart in the source

isolated eag domain of hERG fused to CFP (i-eag.CFP) (domain or fragment)
fast deactivation time constant (tau fast) of hERG1a(R56Q) tail currents with co-expressed i-eag in HEK293 cells, whole-cell patch clamp, -120 to -20 mV (slower than hERG1a(R56Q) alone) [1]: 307 ms
fast deactivation time constant (tau fast) of hERG1a(R56Q) tail currents with co-expressed i-eag in hiPSC-CMs, whole-cell patch clamp, -120 to -20 mV (slower than hERG1a(R56Q) alone) [1]: 326 ms
slow deactivation time constant (tau slow) of hERG1a(R56Q) tail currents with co-expressed i-eag in HEK293 cells, whole-cell patch clamp, -120 to -20 mV (slower than hERG1a(R56Q) alone) [1]: 1780 ms
slow deactivation time constant (tau slow) of hERG1a(R56Q) tail currents with co-expressed i-eag in hiPSC-CMs, whole-cell patch clamp, -120 to -20 mV (slower than hERG1a(R56Q) alone) [1]: 2340 ms
V1/2 of steady-state inactivation of hERG R56Q channels with co-expressed i-eag in HEK293 cells (hERG R56Q alone -13.6 mV, WT hERG -32.2 mV) [2]: -24.7 mV
